Molecular target: Fab fragment of neutralizing antibody HCV1
Sequence (heavy, as listed by the source, chain 1 of 2): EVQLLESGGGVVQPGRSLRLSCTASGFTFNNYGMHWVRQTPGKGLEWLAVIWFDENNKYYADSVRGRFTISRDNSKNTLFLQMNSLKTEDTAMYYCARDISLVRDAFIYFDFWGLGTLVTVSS
Sequence (light, as listed by the source, chain 2 of 2): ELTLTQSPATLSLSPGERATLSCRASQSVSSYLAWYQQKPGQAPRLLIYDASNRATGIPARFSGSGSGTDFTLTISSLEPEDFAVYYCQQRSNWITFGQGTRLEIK

Chain of soluble HCV E2 ectodomain (sE2) (domain or fragment) (Q99IB8 384-719): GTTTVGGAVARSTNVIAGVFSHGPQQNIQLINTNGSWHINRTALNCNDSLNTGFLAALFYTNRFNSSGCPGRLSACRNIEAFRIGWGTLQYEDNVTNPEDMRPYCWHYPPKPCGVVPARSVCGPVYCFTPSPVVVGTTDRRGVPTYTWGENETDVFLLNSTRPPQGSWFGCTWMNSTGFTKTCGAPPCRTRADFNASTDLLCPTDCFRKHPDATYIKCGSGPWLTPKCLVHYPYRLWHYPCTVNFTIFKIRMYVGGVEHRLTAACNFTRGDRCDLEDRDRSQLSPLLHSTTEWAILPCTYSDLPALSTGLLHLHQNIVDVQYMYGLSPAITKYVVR

Kd: 294 nM | koff: 0.00435 s⁻¹ | kon: 14800 M⁻¹ s⁻¹
Substance: soluble HCV E2 ectodomain (sE2) (domain or fragment)
